This note sets out measurements from US20030216321A1 (REGENTS OF THE UNIVERSITY OF MICHIGAN, published 2003).

Ends that are not written are not given here.

The target in test [1] is T1, recombinant active wild-type PAI-1 (plasminogen activator inhibitor type 1) (human, UniProt P05121 24-402).
T1 construct: Serpin; Bacterially expressed human PAI-1 (Molecular Innovations), active conformation (>95%); also called wtPAI-1; active PAI-1
Description: 6.4 µM active PAI-1 with 200 µM peptide; thermodenaturation, mass spectra, SDS-PAGE. The source says: The free peptide was then removed by chromatography on Heparin Sepharose.

The target in test [2] is T2, non-covalent PAI-1-anhydrotrypsin complex (human; bovine, UniProt P00760 24-246, anhydrotrypsin (chemically modified active site; the residue is not given)).
T2 construct: Formed in the well: 1 µM anhydrotrypsin present during the PAI-1 incubation step; also called PAI-1 in association with anhydrotrypsin
Description: solid phase assay on nVn-coated plates with 1 µM anhydrotrypsin in all wells (FIG. 28). How it is done: Briefly, Vn at 1 µg/ml in phosphate buffered saline (PBS), was coated overnight onto Immulon 2 (Dynatech) rmicrotiter plates in a volume of 100 μl at 4° C., and all subsequent steps were performed at room temperature. The plates were washed with PBS followed by dH₂O, allowed to air dry for 15 min., and then blocked with 200 μl of 3% bovine serum albumin in PBS for 30 minutes.

Another test concerns the target T3, PAI-1:tPA complex (human, UniProt P00750 36-562).
T3 construct: also called tPA-PAI-1 complex
The test is described as follows: solid phase assay on nVn-coated plates, anti-PAI-1 detection (FIG. 27).

The target of a further test is T4, PAI-1:uPA complex (human, UniProt P00749 21-431).
T4 construct: also called uPA-PAI-1 complex; UPA-PAI-1
Described as above.

Test [3] has as its target T1, recombinant active wild-type PAI-1 …. Description: competitive inhibition of active PAI-1 binding to immobilized nVn by solution-phase Vn, ELISA. How it is done:
IC₅₀ values for the inhibition by solution-phase Vn were calculated using a four parameter logistic fit from the GraFit program (Erithacus Software). […] The latter was calculated based on the fit of binding data in the absence of competitor Vn (FIG. 37) by equation 1.

B1: synthetic RCL peptide Ac-Thr-Val-Ala-Ser-Ser-Ser-Thr-Ala (PAI-1 P14 to P7) (peptide)
peptide: Ac-TVASSSTA
notes: also called eight residue synthetic peptide
For the molecule B1, in test [1], the binding result is listed as “binds”.

B2: native human vitronectin (ligand, UniProt P04004 20-478, looked up)
chain: DQESCKGRCTEGFNVDKKCQCDELCSYYQSCCTDYTAECKPQVTRGDVFTMPEDEYTVYDDGEEKNNATVHEQVGGPSLTSDLQAQSKGNPEQTPVLKPEEEAPAPEVGASKPEGIDSRPETLHPGRPQPPAEEELCSGKPFDAFTDLKNGSLFAFRGQYCYELDEKAVRPGYPKLIRDVWGIEGPIDAAFTRINCQGKTYLFKGSQYWRFEDGVLDPDYPRNISDGFDGIPDNVDAALALPAHSYSGRERVYFFKGKQYWEYQFQHQPSQEECEGSSLSAVFEHFAMMQRDSWEDIFELLFWGRTSAGTRQPQFISRDWHGVPGQVDAAMAGRIYISGMAPRPSLAKKQRFRHRNRKGYRSQRGHSRGRNQNSRRPSRATWLSLFSSEESNLGANNYDDYRMDWLVPATCEPIQSVFFFSGDKYYRVNLRTRRVDTVDPPYPRSIAQYWLGCPAPGHL
notes: Predominantly monomeric; also called nVn; native Vn
For B2, the binding result in test [2] was “binds”. The Kd with PAI-1:tPA complex and with PAI-1:uPA complex was more than 100 nM throughout.

B3: urea denatured human vitronectin (conformationally altered) (ligand, UniProt P04004 20-478, looked up)
chain: B2 chain
notes: also called dVn; uVn
With B3, the “fold difference of IC50 against solution-phase nVn” value in test [3] was approximately 6 fold.
